Experimental data reported in patent US20080138330.

Target: RTEF-1 (TEAD4) (Homo sapiens) (UniProt Q15561)
Assay: cell_activity

Sequence of RTEF-1 (TEAD4) (Homo sapiens) (Q15561 other isoform, or with tags, fused parts or gaps): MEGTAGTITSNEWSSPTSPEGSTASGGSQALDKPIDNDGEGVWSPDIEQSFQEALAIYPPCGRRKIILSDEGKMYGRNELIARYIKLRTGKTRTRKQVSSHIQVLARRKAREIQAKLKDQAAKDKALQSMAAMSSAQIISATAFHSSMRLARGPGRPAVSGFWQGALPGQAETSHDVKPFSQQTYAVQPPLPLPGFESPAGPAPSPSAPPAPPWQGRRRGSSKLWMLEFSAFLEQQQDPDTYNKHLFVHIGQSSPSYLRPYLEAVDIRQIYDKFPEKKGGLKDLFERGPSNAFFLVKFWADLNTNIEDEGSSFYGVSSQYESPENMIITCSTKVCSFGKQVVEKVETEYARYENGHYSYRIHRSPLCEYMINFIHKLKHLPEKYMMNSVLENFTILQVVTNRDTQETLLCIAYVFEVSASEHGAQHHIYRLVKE

| Substance | activity (luciferase in BAEC) [fold] | activity (luciferase, +/-0.3, 2.7 +/-0.2 fold in hypoxia) [fold] |
| --- | --- | --- |
| FGFR1 0.15 kb promoter (-48/+94) | > 3 |  |
| VEGF 0.35 promoter (-194/+157) |  | 2.2 |
